From article PMC8395149, “Der f 38 Is a Novel TLR4-Binding Allergen Related to Allergy Pathogenesis from Dermatophagoides farinae” (International Journal of Molecular Sciences, 2021) come the findings set out here.

Like-named read-outs stand apart in the source and are kept apart here.

The assay addresses T1, recombinant TLR4 (UniProt O00206 24-631).
T1 construct: Toll-like receptor 4 (TLR4), recombinant protein from R&D Systems; also called Toll-like receptor 4; source: bought: R&D Systems
As to the kind of experiment: BLI; Octet QKe; recombinant TLR4 (1 ug/mL) immobilised in PBS by amine coupling on an AR2G sensor, blocked with 1 M ethanolamine pH 8.5; sensors dipped in 2-fold dilutions of Der f 38 (6400-400 nM and blank); association 300 s, dissociation 1200 s in assay buffer.

T1 sequence (O00206 24-631): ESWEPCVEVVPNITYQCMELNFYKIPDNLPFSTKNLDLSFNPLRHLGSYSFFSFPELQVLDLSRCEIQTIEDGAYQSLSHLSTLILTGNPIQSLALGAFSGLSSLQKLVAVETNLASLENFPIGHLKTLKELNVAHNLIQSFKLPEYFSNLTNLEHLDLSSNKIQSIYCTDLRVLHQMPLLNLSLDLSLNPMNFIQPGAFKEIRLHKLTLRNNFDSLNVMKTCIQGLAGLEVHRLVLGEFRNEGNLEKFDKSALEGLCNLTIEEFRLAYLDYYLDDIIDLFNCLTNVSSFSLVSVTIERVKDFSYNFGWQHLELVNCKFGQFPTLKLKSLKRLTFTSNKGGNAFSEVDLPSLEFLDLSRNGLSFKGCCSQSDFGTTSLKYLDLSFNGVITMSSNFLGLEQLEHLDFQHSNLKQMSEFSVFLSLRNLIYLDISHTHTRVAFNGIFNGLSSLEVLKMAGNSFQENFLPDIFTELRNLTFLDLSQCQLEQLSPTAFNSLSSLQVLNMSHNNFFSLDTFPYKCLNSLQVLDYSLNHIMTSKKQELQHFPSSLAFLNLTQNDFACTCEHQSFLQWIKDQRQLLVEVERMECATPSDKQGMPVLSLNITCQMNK

Turning to recombinant Der f 38 (natural protein), the Kd was found to be 74 nM.

B1: recombinant MD2 (natural protein, UniProt Q9Y6Y9 19-160, looked up)
chain: QKQYWVCNSSDASISYTYCDKMQYPISINVNPCIELKRSKGLLHIFYIPRRDLKQLYFNLYITVNTMNLPKRKEVICRGSDDDYSFCRALKGETVNTTISFSFKGIKFSKGKYKCVVEAISGSPEEMLFCLEFVILHQPNSN
notes: MD2 (MD-2, lymphocyte antigen 96), recombinant protein from R&D Systems; source: bought: R&D Systems
Regarding B1, the equilibrium dissociation constant (Kd) (both partners purified) was determined as 1.56 nM.
